In this experiment the target is Circumsporozoite protein (CSP) (Plasmodium falciparum (isolate 3D7), UniProt Q7K740). As to the kind of experiment: AVEXIS screen signal:noise (double-corrected).
Chain of Circumsporozoite protein (CSP) (Q7K740 19-374): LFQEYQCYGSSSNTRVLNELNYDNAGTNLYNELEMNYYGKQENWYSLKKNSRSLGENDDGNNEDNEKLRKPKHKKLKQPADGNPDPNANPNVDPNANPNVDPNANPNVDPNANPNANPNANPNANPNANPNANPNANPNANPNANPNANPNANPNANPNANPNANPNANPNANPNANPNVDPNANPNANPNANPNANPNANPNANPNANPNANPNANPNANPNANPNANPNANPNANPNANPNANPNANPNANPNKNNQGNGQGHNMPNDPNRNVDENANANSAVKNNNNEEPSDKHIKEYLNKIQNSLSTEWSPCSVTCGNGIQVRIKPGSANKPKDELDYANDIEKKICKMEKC

B1: ADP117 (protein)
chain: MAAPGSARRPLLLLLLLLLLGLMHCASAAMFMVKNGNGTACIMANFSAAFSVNYDTKSGPKNMTFDLPSDATVVLNRSSCGKENTSDPSLVIAFGRGHTLTLNFTRNATRYSVQLMSFVYNLSDTHLFPNASSKEIKTVESITDIRADIDKKYRCVSGTQVHMNNVTVTLHDATIQAYLSNSSFSRGETRCEQDRPSPTTAPPAPPSPSPSPVPKSPSVDKYNVSGTNGTCLLASMGLQLNLTYERKDNTTVTRLLNINPNKTSASGSCGAHLVTLELHSEGTTVLLFQFGMNASSSRFFLQGIQLNTILPDARDPAFKAANGSLRALQATVGNSYKCNAEEHVRVTKAFSVNIFKVWVQAFKVEGGQFGSVEECLLDENSMLIP
modifications: bait human Fc-tagged dimer
In the case of B1, the binding score is 0.992.

B2: ADP358 (protein)
chain: MARSPGRAYALLLLLICFNVGSGLHLQVLSTRNENKLLPKHPHLVRQKRAWITAPVALREGEDLSKKNPIAKIHSDLAEERGLKITYKYTGKGITEPPFGIFVFNKDTGELNVTSILDREETPFFLLTGYALDARGNNVEKPLELRIKVLDINDNEPVFTQDVFVGSVEELSAAHTLVMKINATDADEPNTLNSKISYRIVSLEPAYPPVFYLNKDTGEIYTTSVTLDREEHSSYTLTVEARDGNGEVTDKPVKQAQVQIRILDVNDNIPVVENKVLEGMVEENQVNVEVTRIKVFDADEIGSDNWLANFTFASGNEGGYFHIETDAQTNEGIVTLIKEVDYEEMKNLDFSVIVANKAAFHKSIRSKYKPTPIPIKVKVKNVKEGIHFKSSVISIYVSESMDRSSKGQIIGNFQAFDEDTGLPAHARYVKLEDRDNWISVDSVTSEIKLAKLPDFESRYVQNGTYTVKIVAISEDYPRKTITGTVLINVEDINDNCPTLIEPVQTICHDAEYVNVTAEDLDGHPNSGPFSFSVIDKPPGMAEKWKIARQESTSVLLQQSEKKLGRSEIQFLISDNQGFSCPEKQVLTLTVCECLHGSGCREAQHDSYVGLGP
modifications: bait human Fc-tagged dimer
Take B2: the binding score worked out at 1.38.

B3: ADP296 (protein)
chain: MARERGALSRASRALRLAPFVYLLLIQTDPLEGVNITSPVRLIHGTVGKSALLSVQYSSTSSDRPVVKWQLKRDKPVTVVQSIGTEVIGTLRPDYRDRIRLFENGSLLLSDLQLADEGTYEVEISITDDTFTGEKTINLTVDVPISRPQVLVASTTVLELSEAFTLNCSHENGTKPSYTWLKDGKPLLNDSRMLLSPDQKVLTITRVLMEDDDLYSCMVENPISQGRSLPVKITVYRRSS
modifications: bait human Fc-tagged dimer
With B3, the binding score turned out to be 0.997.

B4: ADP374 (protein)
chain: MKETLYDEVLAKQKREQKLIPTKTDKKKAEKKKNKKKEIQNGNLHESDSESVPRDFKLSDALAVEDDQVAPVPLNVVETSSSVRERKKKEKKQKPVLEEQVIKESDASKIPGKKVEPVPVTKQPTPPSEAAASKKKPGQKKSKNGSDDQDKKVETLMVPSKRQEALPLHQETKQESGSGKKKASSKKQKTENVFVDEPLIHATTYIPLMDNADSSPVVDKREVIDLLKPDQVEGIQKSGTKKLKTETDKENAEVKFKDFLLSLKTMMFSEDEALCVVDLLKEKSGVIQDALKKSSKGELTTLIHQLQEKDKLLAAVKEDAAATKDRCKQLTQEMMTEKERSNVVITRMKDRIGTLEKEHNVFQNKIHVSYQETQQMQMKFQQVREQMEAEIAHLKQENGILRDAVSNTTNQLESKQSAELNKLRQDYARLVNELTEKTGKLQQEEVQKKNAEQAATQLKVQLQEAERRWEEVQSYIRKRTAEHEAAQQDLQSKFVAKENEVQSLHSKLTDTLVSKQQLEQRLMQLMESEQKRVNKEESLQMQVQDILEQNEALKAQIQQFHSQIAAQTSASVLAEELHKVIAEKDKQIKQTEDSLASERDRLTSKEEELKDIQNMNFLLKAEVQKLQALANEQAAAAHELEKMQQSVYVKDDKIRLLEEQLQHEISNKMEEFKILNDQNKALKSEVQKLQTLVSEQPNKDVVEQMEKCIQEKDEKLKTVEELLETGLIQVATKEEELNAIRTENSSLTKEVQDLKAKQNDQVSFASLVEELKKVIHEKDGKIKSVEELLEAELLKVANKEKTVQDLKQEIKALKEEIGNVQLEKAQQLSITSKVQELQNLLKGKEEQMNTMKAVLEEKEKDLANTGKWLQDLQEENESLKAHVQEVAQHNLKEASSASQFEELEIVLKEKENELKRLEAMLKERESDLSSKTQLLQDVQDENKLFKSQIEQLKQQNYQQASSFPPHEELLKVISEREKEISGLWNELDSLKDAVEHQRKKNNDLREKNWEAMEALASTEKMLQDKVNKTSKERQQQVEAVELEAKEVLKKLFPKVSVPSNLSYGEWLHGFEKKAKECMAGTSGSEEVKVLEHKLKEADEMHTLLQLECEKYKSVLAETEGILQKLQRSVEQEENKWKVKVDESHKTIKQMQSSFTSSEQELERLRSENKDIENLRREREHLEMELEKAEMERSTYVTEVRELKDLLTELQKKLDDSYSEAVRQNEELNLLKAQLNETLTKLRTEQNERQKVAGDLHKAQQSLELIQSKIVKAAGDTTVIENSDVSPETESSEKETMSVSLNQTVTQLQQLLQAVNQQLTKEKEHYQVLE
modifications: bait human Fc-tagged dimer
Molecule B4 had a binding score of 0.547.

B5: ADP154 (protein)
chain: MAGKWLLCMLLVLGTAIVEAHDGHDDDVIDIEDDLDDVIEEVEDSKPDTTAPPSSPKVTYKAPVPTGEVYFADSFDRGTLSGWILSKAKKDDTDDEIAKYDGKWEVEEMKESKLPGDKGLVLMSRAKHHAISAKLNKPFLFDTKPLIVQYEVNFQNGIECGGAYVKLLSKTPELNLDQFHDKTPYTIMFGPDKCGEDYKLHFIFRHKNPKTGIYEEKHAKRPDADLKTYFTDKKTHLYTLILNPDNSFEILVDQSVVNSGNLLNDMTPPVNPSREIEDPEDRKPEDWDERPKIPDPEAVKPDDWDEDAPAKIPDEEATKPEGWLDDEPEYVPDPDAEKPEDWDEDMDGEWEAPQIANPRCESAPGCGVWQRPVIDNPNYKGKWKPPMIDNPSYQGIWKPRKIPNPDFFEDLEPFRMTPFSAIGLELWSMTSDIFFDNFIICADRRIVDDWANDGWGLKKAADGAAEPGVVGQMIEAAEERP
modifications: bait human Fc-tagged dimer
B5: the binding score was determined as 0.77.

B6: ADP262 (protein)
chain: QNSQLQEELRGLRETFSNFTASTEAQVKGLSTQGGNVGRKMKSLESQLEKQQKDLSEDHSSLLLHVKQFVSDLRSLSCQMAALQGNGSERTCCPVNWVEHERSCYWFSRSGKAWADADNYCRLEDAHLVVVTSWEEQKFVQHHIGPVNTWMGLHDQNGPWKWVDGTDYETGFKNWRPEQPDDWYGHGLGGGEDCAHFTDDGRWNDDVCQRPYRWVCETELDKASQEPPLL
modifications: bait human Fc-tagged dimer
B6 displayed a binding score of 0.921.

B7: ADP118 (protein)
chain: MARAAALLPSRSPPTPLLWPLLLLLLLETGAQDVRVQVLPEVRGQLGGTVELPCHLLPPVPGLYISLVTWQRPDAPANHQNVAAFHPKMGPSFPSPKPGSERLSFVSAKQSTGQDTEAELQDATLALHGLTVEDEGNYTCEFATFPKGSVRGMTWLRVIAKPKNQAEAQKVTFSQDPTTVALCISKEGRPPARISWLSSLDWEAKETQVSGTLAGTVTVTSRFTLVPSGRADGVTVTCKVEHESFEEPALIPVTLSVRYPPEVSISGYDDNWYLGRTDATLSCDVRSNPEPTGYDWSTTSGTFPTSAVAQGSQLVIHAVDSLFNTTFVCTVTNAVGMGRAEQVIFVRETPNTAGAGAT
modifications: bait human Fc-tagged dimer
B7 gave a binding score of 0.743.

B8: ADP343 (protein)
chain: MALASAAPGSIFCKQLLFSLLVLTLLCDACQKVYLRVPSHLQAETLVGKVNLEECLKSASLIRSSDPAFRILEDGSIYTTHDLILSSERKSFSIFLSDGQRREQQEIKVVLSARENKSPKKRHTKDTALKRSKRRWAPIPASLMENSLGPFPQHVQQIQSDAAQNYTIFYSISGPGVDKEPFNLFYIEKDTGDIFCTRSIDREKYEQFALYGYATTADGYAPEYPLPLIIKIEDDNDNAPYFEHRVTIFTVPENCRSGTSVGKVTATDLDEPDTLHTRLKYKILQQIPDHPKHFSIHPDTGVITTTTPFLDREKCDTYQLIMEVRDMGGQPFGLFNTGTITISLEDENDNPPSFTETSYVTEVEENRIDVEILRMKVQDQDLPNTPHSKAVYKILQGNENGNFIISTDPNTNEGVLCVVKPLNYEVNRQVILQVGVINEAQFSKAASSQTPTMCTTTVTVKIIDSDEGPECHPPVKVIQSQDGFPAGQELLGYKALDPEISSGEGLRYQKLGDEDNWFEINQHTGDLRTLKVLDRESKFVKNNQYNISVVAVDAVGRSCTGTLVVHLDDYNDHAPQIDKEVTICQNNEDFAVLKPVDPDGPENGPPFQFFLDNSASKNWNIEEKDGKTAILRQRQNLDYNYYSVPIQIKDRHGLVATHMLTVRVCDCSTPSECRMKDKSTRDVRPNVILG
modifications: bait human Fc-tagged dimer
In the case of B8, the binding score was 0.814.

B9: ADP353 (protein)
chain: MAARWRFWCVSVTMVVALLIVCDVPSASAQRKKEMVLSEKVSQLMEWTNKRPVIRMNGDKFRRLVKAPPRNYSVIVMFTALQLHRQCVVCKQADEEFQILANSWRYSSAFTNRIFFAMVDFDEGSDVFQMLNMNSAPTFINFPAKGKPKRGDTYELQVRGFSAEQIARWIADRTDVNIRVIRPP
modifications: bait human Fc-tagged dimer
On to B9, for which the binding score turned out to be 1.49.

B10: ADP128 (protein)
chain: MAAEGWIWRWGWGRRCLGRPGLLGPGPGPTTPLFLLLLLGSVTADITDGNSEHLKREHSLIKPYQGVGSSSMPLWDFQGSTMLTSQYVRLTPDERSKEGSIWNHQPCFLKDWEMHVHFKVHGTGKKNLHGDGIALWYTRDRLVPGPVFGSKDNFHGLAIFLDTYPNDETTERVFPYISVMVNNGSLSYDHSKDGRWTELAGCTADFRNRDHDTFLAVRYSRGRLTVMTDLEDKNEWKNCIDITGVRLPTGYYFGASAGTGDLSDNHDIISMKLFQLMVEHTPDEESIDWTKIEPSVNFLKSPKDNVDDPTGNFRSGPLT
modifications: bait human Fc-tagged dimer
Regarding B10, the binding score is 1.03.

B11: ADP136 (protein)
chain: MVRIAGALRTLLPLLAALLQASVEASGEIALCKTGFPEDVYSAVLSKDVHEGQPLLNVKFSNCNGKRKVQYESSEPADFKVDEDGMVYAVRSFPLSSEHAKFLIYAQDKETQEKWQVAVKLSLKPTLTEESVKESAEVEEIVFPRQFSKHSGHLQRQKRDWVIPPINLPENSRGPFPQELVRIRSDRDKNLSLRYSVTGPGADQPPTGIFIINPISGQLSVTKPLDREQIARFHLRAHAVDINGNQVENPIDIVINVIDMNDNRPEFLHQVWNGTVPEGSKPGTYVMTVTAIDADDPNALNGMLRYRIVSQAPSTPSPNMFTINNETGDIITVAAGLDREKVQQYTLIIQATDMEGNPTYGLSNTATAVITVTDVNDNPPEFTAMTFYGEVPENRVDIIVANLTVTDKDQPHTPAWNAVYRISGGDPTGRFAIQTDPNSNDGLVTVVKPIDFETNRMFVLTVAAENQVPLAKGIQHPPQSTATVSVTVIDVNENPYFAPNPKIIRQEEGLHAGTMLTTFTAQDPDRYMQQNIRYTKLSDPANWLKIDPVNGQITTIAVLDRESPNVKNNIYNATFLASDNGIPPMSGTGTLQIYLLDINDNAPQVLPQEAETCETPDPNSINITALDYDIDPNAGPFAFDLPLSPVTIKRNWTITRLNGDFAQLNLKIKFLEAGIYEVPIIITDSGNPPKSNISILRVKVCQCDSNGDCTDVDRIVGAGLGT
modifications: bait human Fc-tagged dimer
In the case of B11, the binding score came out at 1.73.

The values above are taken from article PMC11098746 (2024).
